Data reported in doi:10.1101/2021.02.27.433148.
Like-named read-outs stand apart in the source and are kept apart here.

Legend:
[1] = biological target: murine norovirus (MNV) CR10 P-domain (murine norovirus, strain CR10) (UniProt Q80J94); assay: native MS
[2] = biological target: murine norovirus (MNV) CW1 P-domain (murine norovirus, strain CW1) (UniProt Q80J94); assay: NMR titration
[3] = biological target: murine norovirus (MNV) CW1 P-domain (murine norovirus, strain CW1) (UniProt Q80J94); assay: SEC
[4] = biological target: murine norovirus (MNV) CW1 P-domain (murine norovirus, strain CW1) (UniProt Q80J94); assay: SEC; remark: listed apart in the source
[5] = biological target: murine norovirus (MNV) CW1 P-domain (murine norovirus, strain CW1) (UniProt Q80J94); assay: NMR titration; remark: listed apart in the source
[6] = biological target: human norovirus GII.4 Saga P-domain, fully deamidated at position 373 (iso-aspartate) (human norovirus GII.4 Saga)
[7] = test system: Q80J94; assay: SEC
[8] = biological target: human norovirus GII.4 Saga P-domain (native, Asn373) (human norovirus GII.4 Saga); assay: native MS

Substance: murine norovirus (MNV) CR10 P-domain (from UniProt Q80J94 229-531) (domain or fragment)
- Kd [1]: 32 µM
- stoichiometry N [1]: 2

Substance: murine norovirus (MNV) CW1 P-domain (from UniProt Q80J94 225-541) (domain or fragment)
- Kd [2]: 31 µM
- dimer half-life t1/2 [2]: 17 s
- stoichiometry N [3]: 2
- Kd [4]: 40 µM
- stoichiometry N [4]: 2
- Kd [5]: 12.5 µM
- koff [5]: 0.035 s⁻¹
- kon [5]: 2800 M⁻¹ s⁻¹

Substance: human norovirus GII.4 Saga P-domain point mutant N373Q (domain or fragment)
- koff [6]: 1.5e-06 s⁻¹

Substance: murine norovirus (MNV) CW1 P-domain
- kex (printed as dissociation rate constant kex, from SEC peak tailing) [7]: 0.03 s⁻¹

Substance: human norovirus GII.4 Saga P-domain (native, Asn373) (domain or fragment)
- stoichiometry N [8]: 2
